Measured values reported in paper PMC4777398 (PLoS ONE, 2016).

Target: pre-dimerized IMPα2/IMPβ1 heterodimer (GST-fused mouse proteins) (mouse, UniProt P52293 1-529; P70168 1-876)
Experiment: AlphaScreen or HTRF
Details: both partners purified

B1: His6-GFP-fused wt P-CTD (rabies virus P-protein C-terminal domain) (domain or fragment)
chain: VAQVAPGPPALEWSATNEEDDLSVEAEIAHQIAESFSKKYKFPSRSSGIFLYNFEQLKMNLDDIVKEAKNVPGVTRLAHDGSKIPLRCVLGWVALANSKKFQLLVEADKLSKIMQDDLNRYTSC
Kd: 1.7 ± 0.6 nM
